{"source": "patent US20070099822A1", "about": "“Regulation of tissue mineralization and phosphate metabolism by asarm peptides” (priority 2003, published 2007)", "molecules": {"B1": {"name": "mammalian expressed human recombinant secreted PHEX (secPHEX) (enzyme, UniProt P78562 46-749, looked up)", "chain": "SLQAKQEYCLKPECIEAAAAILSKVNLSVDPCDNFFRFACDGWISNNPIPEDMPSYGVYPWLRHNVDLKLKELLEKSISRRRDTEAIQKAKILYSSCMNEKAIEKADAKPLLHILRHSPFRWPVLESNIGPEGVWSERKFSLLQTLATFRGQYSNSVFIRLYVSPDDKASNEHILKLDQATLSLAVREDYLDNSTEAKSYRDALYKFMVDTAVLLGANSSRAEHDMKSVLRLEIKIAEIMIPHENRTSEAMYNKMNISELSAMIPQFDWLGYIKKVIDTRLYPHLKDISPSENVVVRVPQYFKDLFRILGSERKKTIANYLVWRMVYSRIPNLSRRFQYRWLEFSRVIQGTTTLLPQWDKCVNFIESALPYVVGKMFVDVYFQEDKKEMMEELVEGVRWAFIDMLEKENEWMDAGTKRKAKEKARAVLAKVGYPEFIMNDTHVNEDLKAIKFSEADYFGNVLQTRKYLAQSDFFWLRKAVPKTEWFTNPTTVNAFYSASTNQIRFPAGELQKPFFWGTEYPRSLSYGAIGVIVGHEFTHGFDNNGRKYDKNGNLDPWWSTESEEKFKEKTKCMINQYSNYYWKKAGLNVKGKRTLGENIADNGGLREAFRAYRKWINDRRQGLEEPLLPGITFTNNQLFFLSYAHVRCNSYRPEAAREQVQIGAHSPPQFRVNGAISNFEEFQKAFNCPPNSTMNRGMDSCRLW", "notes": "Gift from Crine and Boileau; Used as SPR analyte and also immobilized as ligand; also called soluble mammalian expressed PHEX"}}, "key": {"[1]": {"test_system": "IgG", "experiment": "Surface plasmon resonance, secPHEX analyte on immobilized IgG", "format": "binding", "conditions": "same chip", "text": "(§1) Surface Plasmon Resonance (SPR). A Biacore 3000 SPR instrument (Biacore, Piscataway, N.J.) in conjunction with CM5 research grade chips were used to conduct the Surface Plasmon Resonance (SPR) experiments, as previously described (Morgan, et al., A conserved clathrin assembly motif essential for synaptic vesicle endocytosis, J Neurosci 20(23):8667-8676, 2000; Morgan, et al., Uncoating of clathrin-coated vesicles in presynaptic terminals: Roles for Hsc70 and auxilin, Neuron 32(2):289-300, 200 1; Morgan, et al., Eps15 homology domain-NPF motif interactions regulate clathrin coat assembly during synaptic vesicle recycling, J Biol Chem 278(35):33583-33592, 2003). The experiments were performed at 25° C. using Biacore (Piscataway, N.J.) buffer (10 mM HEPES pH 7.4, 150 mM NaCl, 0.005% surfactant P20) supplemented with 2 mM ZnCl2 (HBS-P-Zn) or without ZnCl2 (HBS-P) as indicated. Injected samples also contained 2 mg/mL carboxymethyl-dextran to reduce non-specific association with the dextran matrix of the chip and a flow rate of 5 μL/min was used. […] The response unit or RU is a measure of surface charge density-oscillation and surface-plasmon-positron generation as detected by changes in incident refractive-index monitored by the Biacore optical unit. […]"}, "[2]": {"target": "T1, full-length insect-expressed human-MEPE (Hu-MEPE) (human, UniProt Q9NQ76 18-525)", "T1 construct": "also called recombinant Hu-MEPE; Matrix Extracellular Phosphoglycoprotein", "T1 sequence": "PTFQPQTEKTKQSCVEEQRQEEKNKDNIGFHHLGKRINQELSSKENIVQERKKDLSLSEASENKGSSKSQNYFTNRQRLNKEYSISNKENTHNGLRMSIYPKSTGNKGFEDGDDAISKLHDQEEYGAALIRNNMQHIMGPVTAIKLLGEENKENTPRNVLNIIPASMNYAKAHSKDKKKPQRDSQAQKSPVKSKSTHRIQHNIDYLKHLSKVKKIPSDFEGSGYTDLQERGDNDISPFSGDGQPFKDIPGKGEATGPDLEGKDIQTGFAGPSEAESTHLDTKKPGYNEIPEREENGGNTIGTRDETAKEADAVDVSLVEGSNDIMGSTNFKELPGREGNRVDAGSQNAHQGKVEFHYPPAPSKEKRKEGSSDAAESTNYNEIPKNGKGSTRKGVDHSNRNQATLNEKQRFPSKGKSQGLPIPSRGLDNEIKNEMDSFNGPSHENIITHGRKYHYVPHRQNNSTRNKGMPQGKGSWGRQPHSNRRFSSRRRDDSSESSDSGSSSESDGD", "experiment": "SPR (Biacore 3000), MEPE immobilized on CM5 at 3500 RU, secPHEX analyte, HBS-P-Zn (2 mM ZnCl2)", "experimental": "The experiments were performed at 25° C. using Biacore (Piscataway, N.J.) buffer (10 mM HEPES pH 7.4, 150 mM NaCl, 0.005% surfactant P20) supplemented with 2 mM ZnCl₂ (HBS-P-Zn) or without ZnCl₂ (HBS-P) as indicated. Injected samples also contained 2 mg/mL carboxymethyl-dextran to reduce non-specific association with the dextran matrix of the chip and a flow rate of 5 μL/min was used. The surfaces of research grade CM5 chips were activated by a 6 min injection of a solution containing 0.2M N-ethyl-N9-(dimethylaminopropyl) carbodiimide and 0.05M N-hydroxy-succinimide. MEPE, PHEX and IgG were immobilized on the same chip (ligands) in different individual flow-cells. Each chip contains four separate flow-cells, one cell was left blank as a negative control. The experiments were repeated on two different chips with 3500 RU (response-units) and 6000 RU of immobilized proteins respectively. The response unit or RU is a measure of surface charge density-oscillation and surface-plasmon-positron generation as detected by changes in incident refractive-index monitored by the Biacore optical unit. Specifically, 1000 RU unit equals a change of approximately 1 ng/mm² in surface protein concentration on the chip surface. After immobilization, each surface was blocked by a 6 min injection of 1 M ethanolamine at pH 8.5. […]"}, "[3]": {"target": "T2, chip-immobilized MEPE (Homo sapiens, UniProt Q9NQ76)", "T2 construct": "Purified protein contained N-terminal amino acid residues APTFQ confirming cleavage of predicted nascent-MEPE signal-peptide; made in house; host or cells: Spodoptera frugiperda (sf9) insect cells, baculovirus", "T2 sequence (Q9NQ76 18-525)": "T1 sequence", "experiment": "Surface plasmon resonance, secPHEX analyte on chip-immobilized MEPE", "format": "binding", "text": "Surface Plasmon Resonance (SPR). A Biacore 3000 SPR instrument (Biacore, Piscataway, N.J.) in conjunction with CM5 research grade chips were used to conduct the Surface Plasmon Resonance (SPR) experiments, as previously described (Morgan, et al., A conserved clathrin assembly motif essential for synaptic vesicle endocytosis, J Neurosci 20(23):8667-8676, 2000; Morgan, et al., Uncoating of clathrin-coated vesicles in presynaptic terminals: Roles for Hsc70 and auxilin, Neuron 32(2):289-300, 200 1; Morgan, et al., Eps15 homology domain-NPF motif interactions regulate clathrin coat assembly during synaptic vesicle recycling, J Biol Chem 278(35):33583-33592, 2003). The experiments were performed at 25° C. using Biacore (Piscataway, N.J.) buffer (10 mM HEPES pH 7.4, 150 mM NaCl, 0.005% surfactant P20) supplemented with 2 mM ZnCl2 (HBS-P-Zn) or without ZnCl2 (HBS-P) as indicated. Injected samples also contained 2 mg/mL carboxymethyl-dextran to reduce non-specific association with the dextran matrix of the chip and a flow rate of 5 μL/min was used. The surfaces of research grade CM5 chips were activated by a 6 min injection of a solution containing 0.2M N-ethyl-N9-(dimethylaminopropyl) carbodiimide and 0.05M N-hydroxy-succinimide. MEPE, PHEX and IgG were immobilized on the same chip (ligands) in different individual flow-cells. Each chip contains four separate flow-cells, one cell was left blank as a negative control. The experiments were repeated on two different chips with 3500 RU (response-units) and 6000 RU of immobilized proteins respectively. The response unit or RU is a measure of surface charge density-oscillation and surface-plasmon-positron generation as detected by changes in incident refractive-index monitored by the Biacore optical unit. Specifically, 1000 RU unit equals a change of approximately 1 ng/mm^2 in surface protein concentration on the chip surface. After immobilization, each surface was blocked by a 6 min injection of 1 M ethanolamine at pH 8.5. […]"}, "[4]": {"target": "T3, chip-immobilized secPHEX (Homo sapiens, UniProt P78562)", "T3 construct": "to generate a soluble, secreted form of PHEX; made in house; gift of Crine and Boileau, University of Montreal", "T3 sequence (P78562 46-749 limits assumed)": "B1 chain", "experiment": "Surface plasmon resonance, secPHEX analyte on immobilized secPHEX", "format": "binding", "conditions": "2 uM secPHEX", "text": "as §1"}}, "note": "“Also recorded” adds a separate entry of the source."}
{"molecule": "B1", "values": [{"measurement": "interaction of secPHEX with control IgG", "setting": "[1]", "result": "no significant signals; also recorded: No interaction"}, {"measurement": "EC50", "setting": "[2]", "result": 553, "unit": "nM"}, {"measurement": "binding of secPHEX to MEPE in buffer lacking ZnCl2", "setting": "[3]; HBS-P, secPHEX up to 10 uM", "result": "No interaction"}, {"measurement": "binding of secPHEX to MEPE", "setting": "[3]; HBS-P-Zn buffer, saturation at 10 uM secPHEX", "result": "dose dependent"}, {"measurement": "Bmax of secPHEX binding to immobilized MEPE", "setting": "[3]; MEPE 3500 RU", "result": 680, "unit": "RU"}, {"measurement": "interaction of secPHEX analyte with chip-immobilized secPHEX", "setting": "[4]", "result": "very low-level barely-detectable autologous-interaction"}]}
